Source: article PMC3092057

Key:
Test in all cases: EMSA
TIEG1(DBD) S384E = TIEG1(DBD) S384E (Homo sapiens, UniProt Q13118 363-480, S384E)
TIEG1(DBD) S384E/T445E = TIEG1(DBD) S384E/T445E (Homo sapiens, UniProt Q13118 363-480, S384E;T445E)
TIEG1(DBD) = TIEG1(DBD) (Homo sapiens, UniProt Q13118 363-480)
TIEG1(DBD) T445A = TIEG1(DBD) T445A (Homo sapiens, UniProt Q13118 363-480, T445A)
TIEG1(DBD) S384A = TIEG1(DBD) S384A (Homo sapiens, UniProt Q13118 363-480, S384A)
TIEG1(DBD) S384A/T445A = TIEG1(DBD) S384A/T445A (Homo sapiens, UniProt Q13118 363-480, S384A;T445A)
TIEG1(DBD) S384A/T445A, sequence (Q13118 363-480 S384A/T445A): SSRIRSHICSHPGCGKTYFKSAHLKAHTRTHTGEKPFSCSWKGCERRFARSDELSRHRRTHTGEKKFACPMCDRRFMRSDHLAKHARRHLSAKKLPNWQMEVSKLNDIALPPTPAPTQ

TIEG1(DBD) T445E = TIEG1(DBD) T445E (Homo sapiens, UniProt Q13118 363-480, T445E)
TIEG1(DBD) T445E, sequence (Q13118 363-480 T445E): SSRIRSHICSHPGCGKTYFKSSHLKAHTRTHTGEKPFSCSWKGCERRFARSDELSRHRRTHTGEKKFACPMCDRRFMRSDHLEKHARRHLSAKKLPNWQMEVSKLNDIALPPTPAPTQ

TIEG1(DBD) S384A, sequence (Q13118 363-480 S384A): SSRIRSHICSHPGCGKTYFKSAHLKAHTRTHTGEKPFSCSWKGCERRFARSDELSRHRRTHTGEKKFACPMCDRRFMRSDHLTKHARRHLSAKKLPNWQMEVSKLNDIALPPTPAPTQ
TIEG1(DBD) S384E/T445E, sequence (Q13118 363-480 S384E/T445E): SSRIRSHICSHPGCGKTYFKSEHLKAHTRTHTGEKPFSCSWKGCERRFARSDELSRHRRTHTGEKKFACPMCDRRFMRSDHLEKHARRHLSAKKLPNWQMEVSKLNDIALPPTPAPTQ
TIEG1(DBD), sequence (Q13118 363-480): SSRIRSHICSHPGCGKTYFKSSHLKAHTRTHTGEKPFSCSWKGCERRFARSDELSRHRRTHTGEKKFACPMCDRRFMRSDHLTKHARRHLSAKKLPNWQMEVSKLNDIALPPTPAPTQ
TIEG1(DBD) S384E, sequence (Q13118 363-480 S384E): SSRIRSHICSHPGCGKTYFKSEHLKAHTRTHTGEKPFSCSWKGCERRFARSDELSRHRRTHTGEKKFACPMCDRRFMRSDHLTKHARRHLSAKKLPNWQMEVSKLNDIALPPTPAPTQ
TIEG1(DBD) T445A, sequence (Q13118 363-480 T445A): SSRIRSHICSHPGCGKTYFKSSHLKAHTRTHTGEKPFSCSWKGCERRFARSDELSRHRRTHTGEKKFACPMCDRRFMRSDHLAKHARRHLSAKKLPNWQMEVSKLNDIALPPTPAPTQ

B1: set I TIEG1 site (dsDNA)
DNA 1: TGCAGTGAAAAGGGGGTGTGTCAGGATGC
DNA 2: TGCATCCTGACACACCCCCTTTTCACTGC
TIEG1(DBD) S384E
  binding result: no binding
TIEG1(DBD) S384E/T445E
  binding result: no binding
TIEG1(DBD)
  binding result: binds
TIEG1(DBD) T445A
  binding result: binds
TIEG1(DBD) S384A
  binding result: binds
TIEG1(DBD) S384A/T445A
  binding result: binds
TIEG1(DBD) T445E
  binding result: binds
